Molecular target: T1, Rrp4 protein of the Pyrococcus abyssi exosome, as encoded by pMRKA-EXO (Pyrococcus abyssi, UniProt Q9V120 2-263)
T1 construct: Co-expressed in E. coli; also called PAB0419
T1 sequence: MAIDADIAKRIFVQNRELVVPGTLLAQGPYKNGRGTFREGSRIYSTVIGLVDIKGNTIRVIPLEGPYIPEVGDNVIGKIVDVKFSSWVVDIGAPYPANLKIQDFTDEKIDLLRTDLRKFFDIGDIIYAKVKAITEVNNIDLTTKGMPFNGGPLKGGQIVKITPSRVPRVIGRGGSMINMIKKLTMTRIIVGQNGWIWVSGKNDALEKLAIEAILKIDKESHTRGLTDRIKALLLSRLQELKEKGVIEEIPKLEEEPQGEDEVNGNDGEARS
Assay: co-expression in E. coli and co-purification, gel (FIG. 11)

B1: Rrp41 protein of the Pyrococcus abyssi exosome, as encoded by pMRKA-EXO (R89T, K91S) (other)
chain: MATRAEKPEGLKLIDENGRRIDGRKKYELRPIKMEVGVLKNANGSAYIEWGKNKIIAAVYGPRELHPKHLQRPDRAILRVRYNMAPFSVEETKSPGPDRRSIEISKVIKGALEPALILEMFPRTAIDVFIEVLQADAGTRVAGITAASLALADAGIPMRDLVAACAAGKIEGEIVLDLNKEEDNYGEADVPVAIMPLKNDITLLQMDGYLTKDEFIEAVKLAIKGAKAVYQKQREALKEKYLKIAQEVEGS
notes: also called PAB0420
binding result: binds

Source: patent US20180135060A1 (OURO FINO SAUDE ANIMAL LTDA, published 2018)
